Source: article PMC3536711, “Directed Evolution of a Model Primordial Enzyme Provides Insights into the Development of the Genetic Code” (PLoS Genetics, 2013)

Biological target: 9-CM, simplified chorismate mutase composed of only nine different amino acids
Assay: SEC; size-exclusion column after Ni-NTA affinity purification; dimer peak (major peak around 170 mL) isolated for each sample; small fraction of aggregates in the mutant proteins

## 9-CM, simplified chorismate mutase composed of only nine different amino acids (enzyme)
  stoichiometry N: 2
